Measured values published in US20210094999A1.

Key:
[1] = molecular target: insulin receptor-A on CHO-hIR cells (human) (UniProt P06213); test: cell-based or functional assay
[2] = molecular target: solubilised human insulin receptor isoform A (IR-A) (human) (UniProt P06213); test: competition SPA on solubilised human IR-A against [125I-TyrA14]-human insulin; affinity relative to human insulin

Row | Substance | % maxERK/% maxAKT [1] | Elisa hIR pY1158 max (% of human insulin) (% of human insulin) [1] | hIR binding IC50 (% of human insulin) (% of human insulin) [2]
1 | N{Epsilon-B28}-17-carboxyheptadecanoyl-[PheB5,LysB28],des-(B29-B30)-Insulin (ligand; Lys B28: N-epsilon acylated with C18 diacid, no linker) | 0.31 | 10 | –
2 | [TyrB5,AlaB26],des-ThrB30-Insulin (ligand) | 0.85 | 132 | –
3 | [TyrB5,GlyB26],des-ThrB30-Insulin (ligand) | 0.82 | 93 | –
4 | N{Epsilon-B26}-[2-[2-[2-[[2-[2-[2-[[(4S)-4-carboxy-4-(17-carboxyheptadecanoylamino)butanoyl]amino]ethoxy]ethoxy]acetyl]amino]ethoxy]ethoxy]acetyl]-[TyrB5,LysB26],des-(B27-B30)-Insulin (ligand; Lys B26: N-epsilon acylated with C18 diacid-gGlu-2xOEG) | 0.41 | 24 | –
5 | N{Epsilon-B29}-[(4S)-4-carboxy-4-(17-carboxyheptadecanoylamino)butanoyl]-[TyrB5,AlaB26],des-ThrB30-Insulin (ligand; Lys B29: N-epsilon acylated with C18 diacid-gGlu) | 0.29 | 6 | –
6 | N{Epsilon-B29}-[(4S)-4-carboxy-4-(15-carboxypentadecanoylamino)butanoyl]-[TyrB5],des-ThrB30-Insulin (ligand; Lys B29: N-epsilon acylated with C16 diacid-gGlu) | 0.84 | 58 | –
7 | N{Epsilon-B26}-[2-[2-[2-[[(4S)-4-carboxy-4-(17-carboxyheptadecanoylamino)butanoyl]amino]ethoxy]ethoxy]acetyl]-[TyrB5,LysB26],des-(B27-B30)-Insulin (ligand; Lys B26: N-epsilon acylated with C18 diacid-gGlu-OEG) | 0.27 | 20 | –
8 | N{Epsilon-B29}-tetradecanoyl-[TyrB5],des-ThrB30-Insulin (ligand; Lys B29: N-epsilon acylated with C14 (tetradecanoyl), no linker) | 0.66 | 40 | –
9 | Insulin degludec (ligand) | 0.97 | 87 | 20
10 | N{Epsilon-B28}-[2-[2-[2-[[(4S)-4-carboxy-4-(17-carboxyheptadecanoylamino)butanoyl]amino]ethoxy]ethoxy]acetyl]-[TyrB5,LysB28],des-(B29-B30)-Insulin (ligand; Lys B28: N-epsilon acylated with C18 diacid-gGlu-OEG) | 0.61 | 39 | –
11 | N{Epsilon-B28}-[(4S)-4-carboxy-4-(17-carboxyheptadecanoylamino)butanoyl]-[TyrB5,LysB28],des-(B29-B30)-Insulin (ligand; Lys B28: N-epsilon acylated with C18 diacid-gGlu) | 0.37 | 19 | –
12 | N{Epsilon-B26}-17-carboxyheptadecanoyl-[TyrB5,LysB26],des-(B27-B30)-Insulin (ligand; Lys B26: N-epsilon acylated with C18 diacid, no linker) | – | 2 | –
13 | N{Epsilon-B29}-[(4S)-4-carboxy-4-(15-carboxypentadecanoylamino)butanoyl]-[TyrB5,GlyB26],des-ThrB30-Insulin (ligand; Lys B29: N-epsilon acylated with C16 diacid-gGlu) | 0.19 | 8 | –
14 | N{Epsilon-B28}-[(4S)-4-carboxy-4-[[(4R)-4-[(3R,10S,13R,17R)-3-hydroxy-10,13-dimethyl-2,3,4,5,6,7,8,9,11,12,14,15,16,17-tetradecahydro-1H-cyclopenta[a]phenanthren-17-yl]pentanoyl]amino]butanoyl]-[TyrB5,LysB28],des-(B29-B30)-Insulin (ligand; Lys B28: N-epsilon acylated with lithocholic acid-gGlu) | 0.32 | 25 | –
15 | N{Epsilon-B28}-17-carboxyheptadecanoyl-[TyrB5,LysB28],des-(B29-B30)-Insulin (ligand; Lys B28: N-epsilon acylated with C18 diacid, no linker) | 0.35 | 17 | –

Results, then the substance that gave them:

Row | % maxERK/% maxAKT [1] | Elisa hIR pY1158 max (% of human insulin) (% of human insulin) [1] | hIR binding IC50 (% of human insulin) (% of human insulin) [2] | Substance
16 | 0.34 | 7 | – | N{Epsilon-B28}-[2-[2-[2-[[(4S)-4-carboxy-4-(17-carboxyheptadecanoylamino)butanoyl]amino]ethoxy]ethoxy]acetyl]-[TyrB5,GlyB26,LysB28],des-(B29-B30)-Insulin (ligand; Lys B28: N-epsilon acylated with C18 diacid-gGlu-OEG)
17 | 0.07 | 3 | – | N{Epsilon-B28}-17-carboxyheptadecanoyl-[TyrB5,GlyB26,LysB28],des-(B29-B30)-Insulin (ligand; Lys B28: N-epsilon acylated with C18 diacid, no linker)
18 | 0.45 | 36 | – | N{Epsilon-B28}-[(4S)-4-carboxy-4-[[(4S)-4-carboxy-4-(17-carboxyheptadecanoylamino)butanoyl]amino]butanoyl]-[TyrB5,LysB28],des-(B29-B30)-Insulin (ligand; Lys B28: N-epsilon acylated with C18 diacid-2xgGlu)
19 | 0.79 | 95 | – | Insulin aspart (ligand)
20 | 0.36 | 7 | – | N{Epsilon-B29}-[(4S)-4-carboxy-4-(17-carboxyheptadecanoylamino)butanoyl]-[TyrB5,GlyB26],des-ThrB30-Insulin (ligand; Lys B29: N-epsilon acylated with C18 diacid-gGlu)
21 | 0.29 | 14 | – | N{Epsilon-B28}-[(4R)-4-[(3R,10S,13R,17R)-3-hydroxy-10,13-dimethyl-2,3,4,5,6,7,8,9,11,12,14,15,16,17-tetradecahydro-1H-cyclopenta[a]phenanthren-17-yl]pentanoyl]-[TyrB5,LysB28],des-(B29-B30)-Insulin (ligand; Lys B28: N-epsilon acylated with lithocholic acid, no linker)
22 | 0.3 | 13 | – | N{Epsilon-B29}-[(4S)-4-carboxy-4-(15-carboxypentadecanoylamino)butanoyl]-[TyrB5,AlaB26],des-ThrB30-Insulin (ligand; Lys B29: N-epsilon acylated with C16 diacid-gGlu)
23 | – | 104 | – | Insulin lispro (ligand)
24 | 0.48 | 31 | – | N{Epsilon-B28}-[2-[2-[2-(17-carboxyheptadecanoylamino)ethoxy]ethoxy]acetyl]-[TyrB5,LysB28],des-(B29-B30)-Insulin (ligand; Lys B28: N-epsilon acylated with C18 diacid-OEG)
25 | 0.33 | 6 | – | N{Epsilon-B26}-[(4S)-4-carboxy-4-(17-carboxyheptadecanoylamino)butanoyl]-[TyrB5,LysB26],des-(B27-B30)-Insulin (ligand; Lys B26: N-epsilon acylated with C18 diacid-gGlu)
26 | 0.38 | 32 | – | N{Epsilon-B28}-15-carboxypentadecanoyl-[TyrB5,LysB28],des-(B29-B30)-Insulin (ligand; Lys B28: N-epsilon acylated with C16 diacid, no linker)
27 | 0.2 | 6 | – | N{Epsilon-B28}-[2-[2-[2-[[(4S)-4-carboxy-4-(17-carboxyheptadecanoylamino)butanoyl]amino]ethoxy]ethoxy]acetyl]-[TyrB5,AlaB26,LysB28],des-(B29-B30)-Insulin (ligand; Lys B28: N-epsilon acylated with C18 diacid-gGlu-OEG)
28 | 0.27 | 10 | – | N{Epsilon-B28}-15-carboxypentadecanoyl-[TyrB5,GlyB26,LysB28],des-(B29-B30)-Insulin (ligand; Lys B28: N-epsilon acylated with C16 diacid, no linker)
29 | 0.47 | 43 | – | N{Epsilon-B28}-[(4S)-4-carboxy-4-(15-carboxypentadecanoylamino)butanoyl]-[TyrB5,LysB28],des-(B29-B30)-Insulin (ligand; Lys B28: N-epsilon acylated with C16 diacid-gGlu)
30 | 0.84 | 93 | – | [TyrB5,LysB28],des-(B29-B30)-Insulin (ligand)
31 | 0.85 | 104 | 79 | Insulin glargine (ligand)
